Assay results as given in the Human Domainome abundance scans (Beltran et al. 2025).
± gives the uncertainty stated by the source.

B1: Segment polarity protein dishevelled homolog DVL-3, residues 2 to 81; numbered along this chain, Q92997 (parent)
chain: GETKIIYHLDGQETPYLVKLPLPAERVTLADFKGVLQRPSYKFFFKSMDDDFGVVKEEISDDNAKLPCFNGRVVSWLVSA

Variants of: B1
Assay: abundance fitness (aPCA) (normalised: wild type 0, dead -1); higher = more abundant; growth selection in yeast, the domain comes from the species named
Settings: Homo sapiens

Abundance fitness: each site, then its substitutions
D62: Q -0.603 ± 0.13, Y -0.604 ± 0.26, R -0.709 ± 0.082, C -1.05 ± 0.28, W -0.929 ± 0.16, V -0.674 ± 0.096, F -0.536 ± 0.25, I -0.744 ± 0.28, N -0.307 ± 0.14, M -0.441 ± 0.11, G -0.818 ± 0.093, T -0.906 ± 0.17, A -0.875 ± 0.14, P -0.575 ± 0.11, L -0.563 ± 0.081, S -0.748 ± 0.11
S60: G -0.572 ± 0.055, C 0.1 ± 0.072, A -0.152 ± 0.051, L -0.502 ± 0.084, T -0.005 ± 0.055, F -0.189 ± 0.12, R -0.273 ± 0.045, H 0.137 ± 0.095, E -0.269 ± 0.063, N -0.111 ± 0.12, K 0.032 ± 0.067, D -0.32 ± 0.098, P -0.922 ± 0.16, M -0.199 ± 0.078, W -0.115 ± 0.057, I -0.325 ± 0.14
K56: Q -0.285 ± 0.072, R 0.041 ± 0.038, V 0.102 ± 0.042, Y 0.592 ± 0.083, S -0.52 ± 0.071, T 0.162 ± 0.051, W 0.282 ± 0.048
A64: S -0.376 ± 0.071, I -0.414 ± 0.26, P -0.663 ± 0.12, R -0.359 ± 0.052, Y -0.894 ± 0.27, W -0.672 ± 0.11, M -0.316 ± 0.08, F -0.786 ± 0.23, N -0.523 ± 0.18, V -0.506 ± 0.068, E -0.27 ± 0.077, D -0.342 ± 0.14, C -0.346 ± 0.12, G -0.647 ± 0.067, Q -0.001 ± 0.075, L -0.904 ± 0.12
N63: K -0.175 ± 0.07, A -0.184 ± 0.057, C -0.157 ± 0.087, L -0.615 ± 0.08, I -0.766 ± 0.24, T -0.119 ± 0.061, Q -0.113 ± 0.069, F -0.661 ± 0.21, S -0.104 ± 0.054, G -0.175 ± 0.041, Y -0.33 ± 0.12, V -0.59 ± 0.075, E 0.009 ± 0.059, R -0.238 ± 0.042, H -0.093 ± 0.12
K65: E -0.821 ± 0.14, R -0.032 ± 0.049, C -0.183 ± 0.13, V 0.072 ± 0.059, M -0.264 ± 0.12, P -0.135 ± 0.066, D -0.914 ± 0.22, F -0.284 ± 0.15, L -0.005 ± 0.06, N -0.139 ± 0.12, I 0.263 ± 0.1, G -0.47 ± 0.071, Q 0.127 ± 0.074, Y 0.093 ± 0.11, S -0.195 ± 0.068, H 0.091 ± 0.16
D61: G -0.791 ± 0.068, Y -0.666 ± 0.21, P -0.566 ± 0.12, A -0.578 ± 0.074, N -0.33 ± 0.17, T -0.985 ± 0.18, M -0.335 ± 0.11, Q -0.082 ± 0.086, C -0.407 ± 0.13, V -0.695 ± 0.093, S -0.594 ± 0.082, K -0.984 ± 0.18, H -0.695 ± 0.22, F -0.52 ± 0.17, E -0.257 ± 0.062, L -0.763 ± 0.1, I -0.384 ± 0.27, W -0.679 ± 0.098
E58: Q -0.513 ± 0.12, L -0.492 ± 0.069, M -0.476 ± 0.092, P -0.95 ± 0.16, D -0.942 ± 0.19, S -0.62 ± 0.088, K -0.652 ± 0.15, Y -0.801 ± 0.19, V -0.561 ± 0.082, N -0.536 ± 0.17, A -0.647 ± 0.097, T -0.456 ± 0.098, G -0.733 ± 0.073, R -0.676 ± 0.069, H -0.227 ± 0.14
I59: C -0.593 ± 0.13, E -0.677 ± 0.12, A -0.419 ± 0.067, N -0.736 ± 0.28, L -0.64 ± 0.071, V -0.395 ± 0.064, M -0.474 ± 0.097, K -0.675 ± 0.13, P -0.777 ± 0.11, F -0.592 ± 0.27, W -0.724 ± 0.094, G -0.696 ± 0.069, D -1.21 ± 0.32, Q -1.11 ± 0.17, S -0.704 ± 0.087, T -0.811 ± 0.12, Y -0.655 ± 0.19, H -0.628 ± 0.16, R -0.746 ± 0.065
L66: M -0.664 ± 0.13, N -0.825 ± 0.24, C -0.923 ± 0.19, F -0.461 ± 0.16, K -0.644 ± 0.11, P -0.588 ± 0.098, I -0.461 ± 0.19, G -0.789 ± 0.076, H -0.475 ± 0.17, E -0.493 ± 0.085, D -1.44 ± 0.42, A -0.822 ± 0.12
E57: M 0.292 ± 0.061, Y -0.222 ± 0.13, C -0.09 ± 0.086, K 0.502 ± 0.052, N -0.276 ± 0.14, Q 0.256 ± 0.055, V 0.254 ± 0.049, H -0.109 ± 0.11, G -0.623 ± 0.084, R 0.44 ± 0.038, D -0.904 ± 0.24, T 0.441 ± 0.052, S -0.137 ± 0.055, W -0.526 ± 0.097, A -0.121 ± 0.056, L 0.136 ± 0.05, P -0.475 ± 0.095
